Measured values from the FLAb antibody collection (doi:10.1101/2023.12.08.570889).

Target: TSLP, Q969D9
Experiment: Kd (SPR)

Row | Binder | Kd
1 | unnamed (protein) chain 1: QMQLVESGGGVVQPGRSLRLSCAASGFTFRTYGMHWVRQAPGKGLEWVAVIWYDGSNKHYADSVKGRFTITRDNSKNTLNLQMNSLRAEDTAVYYCARSPRYDDYYEAFDVWGQGTMVTVSS chain 2: SYVLTQPPSVSVAPGQTARITCGGNNLGSKSVHWYQQKPGQAPVLVVYDDSDRPSWIPERFSGSNSGNTATLTISRGEAGDEADYYCQVWDSSSDHVVFGGGTKLTVL | 186 nM
2 | unnamed (protein) chain 1: QMQLVESGGGVVQPGRSLRLSCAASGFTFSTFAMHWVRQAPGKGLEWVAVIWYDGSNKHYADSVKGRFTITRDNSKNTLNLQMNSLRAEDTAVYYCARAPRYDWYYEAFDVWGQGTMVTVSS chain 2: SYVLTQPPSVSVAPGQTARITCGGNNLGSKSVHWYQQKPGQAPVLVVYDDSDRPSWIPERFSGSNSGNTATLTISRGEAGDEADYYCQVWDSSSDHVVFGGGTKLTVL | 90.8 nM
3 | unnamed (protein) chain 1: QMQLVESGGGVVQPGRSLRLSCAASGFTFRTYGMHWVRQAPGKGLEWVAVIWYDGSNKHYADSVKGRFTITRDNSKNTLNLQMNSLRAEDTAVYYCARAPRYDEHWEAFDVWGQGTMVTVSS chain 2: SYVLTQPPSVSVAPGQTARITCGGNNLGSKSVHWYQQKPGQAPVLVVYDDSDRPSWIPERFSGSNSGNTATLTISRGEAGDEADYYCQVWDSSSDHVVFGGGTKLTVL | 170 nM
4 | unnamed (protein) chain 1: QMQLVESGGGVVQPGRSLRLSCAASGFTFRTYGMHWVRQAPGKGLEWVAVIWYDGSNKHYADSVKGRFTITRDNSKNTLNLQMNSLRAEDTAVYYCARSPRYDDYWEAFDVWGQGTMVTVSS chain 2: SYVLTQPPSVSVAPGQTARITCGGNNLGSKSVHWYQQKPGQAPVLVVYDDSDRPSWIPERFSGSNSGNTATLTISRGEAGDEADYYCQVWDSSSDHVVFGGGTKLTVL | 197 nM
5 | unnamed (protein) chain 1: QMQLVESGGGVVQPGRSLRLSCAASGFTFSTFAMHWVRQAPGKGLEWVAVIWYDGSNKHYADSVKGRFTITRDNSKNTLNLQMNSLRAEDTAVYYCARAPRYYWYYEAFDVWGQGTMVTVSS chain 2: SYVLTQPPSVSVAPGQTARITCGGNNLGSKSVHWYQQKPGQAPVLVVYDDSDRPSWIPERFSGSNSGNTATLTISRGEAGDEADYYCQVWDSSSDHVVFGGGTKLTVL | 96.6 nM
6 | unnamed (protein) chain 1: QMQLVESGGGVVQPGRSLRLSCAASGFTFSTYAMHWVRQAPGKGLEWVAVIWYDGSNKHYADSVKGRFTITRDNSKNTLNLQMNSLRAEDTAVYYCARAPRYDERYEAFDVWGQGTMVTVSS chain 2: SYVLTQPPSVSVAPGQTARITCGGNNLGSKSVHWYQQKPGQAPVLVVYDDSDRPSWIPERFSGSNSGNTATLTISRGEAGDEADYYCQVWDSSSDHVVFGGGTKLTVL | 686 nM
7 | unnamed (protein) chain 1: QMQLVESGGGVVQPGRSLRLSCAASGFTFRTYGMHWVRQAPGKGLEWVAVIWYDGSNKHYADSVKGRFTITRDNSKNTLNLQMNSLRAEDTAVYYCARAPRYDEYLEAFDVWGQGTMVTVSS chain 2: SYVLTQPPSVSVAPGQTARITCGGNNLGSKSVHWYQQKPGQAPVLVVYDDSDRPSWIPERFSGSNSGNTATLTISRGEAGDEADYYCQVWDSSSDHVVFGGGTKLTVL | 129 nM
8 | unnamed (protein) chain 1: QMQLVESGGGVVQPGRSLRLSCAASGFTFSTFAMHWVRQAPGKGLEWVAVIWYDGSNKHYADSVKGRFTITRDNSKNTLNLQMNSLRAEDTAVYYCARAPRYDERYEAFDVWGQGTMVTVSS chain 2: SYVLTQPPSVSVAPGQTARITCGGNNLGSKSVHWYQQKPGQAPVLVVYDDSDRPSWIPERFSGSNSGNTATLTISRGEAGDEADYYCQVWDSSSDHVVFGGGTKLTVL | 366 nM
9 | unnamed (protein) chain 1: QMQLVESGGGVVQPGRSLRLSCAASGFTFSTYAMHWVRQAPGKGLEWVAVIWYDGSNKHYADSVKGRFTITRDNSKNTLNLQMNSLRAEDTAVYYCARSPRYDEYWEAFDVWGQGTMVTVSS chain 2: SYVLTQPPSVSVAPGQTARITCGGNNLGSKSVHWYQQKPGQAPVLVVYDDSDRPSWIPERFSGSNSGNTATLTISRGEAGDEADYYCQVWDSSSDHVVFGGGTKLTVL | 836 nM
10 | unnamed (protein) chain 1: QMQLVESGGGVVQPGRSLRLSCAASGFTFSTFAMHWVRQAPGKGLEWVAVIWYDGSNKHYADSVKGRFTITRDNSKNTLNLQMNSLRAEDTAVYYCARAPRYDEDWEAFDVWGQGTMVTVSS chain 2: SYVLTQPPSVSVAPGQTARITCGGNNLGSKSVHWYQQKPGQAPVLVVYDDSDRPSWIPERFSGSNSGNTATLTISRGEAGDEADYYCQVWDSSSDHVVFGGGTKLTVL | 894 nM
11 | unnamed (protein) chain 1: QMQLVESGGGVVQPGRSLRLSCAASGFTFSTYAMHWVRQAPGKGLEWVAVIWYDGSNKHYADSVKGRFTITRDNSKNTLNLQMNSLRAEDTAVYYCARAPRYDWYWEAFDVWGQGTMVTVSS chain 2: SYVLTQPPSVSVAPGQTARITCGGNNLGSKSVHWYQQKPGQAPVLVVYDDSDRPSWIPERFSGSNSGNTATLTISRGEAGDEADYYCQVWDSSSDHVVFGGGTKLTVL | 759 nM
12 | unnamed (protein) chain 1: QMQLVESGGGVVQPGRSLRLSCAASGFTFSTYAMHWVRQAPGKGLEWVAVIWYDGSNKHYADSVKGRFTITRDNSKNTLNLQMNSLRAEDTAVYYCARAPRYDEYWEAFDVWGQGTMVTVSS chain 2: SYVLTQPPSVSVAPGQTARITCGGNNLGSKSVHWYQQKPGQAPVLVVYDDSDRPSWIPERFSGSNSGNTATLTISRGEAGDEADYYCQVWDSSSDHVVFGGGTKLTVL | 633 nM
13 | unnamed (protein) chain 1: QMQLVESGGGVVQPGRSLRLSCAASGFTFSTYAMHWVRQAPGKGLEWVAVIWYDGSNKHYADSVKGRFTITRDNSKNTLNLQMNSLRAEDTAVYYCARAPRYDDYWEAFDVWGQGTMVTVSS chain 2: SYVLTQPPSVSVAPGQTARITCGGNNLGSKSVHWYQQKPGQAPVLVVYDDSDRPSWIPERFSGSNSGNTATLTISRGEAGDEADYYCQVWDSSSDHVVFGGGTKLTVL | 718 nM

Stronger by Kd, values ahead:

Row | Kd | Binder
14 | 56.8 nM | unnamed (protein) chain 1: QMQLVESGGGVVQPGRSLRLSCAASGFTFSTFAMHWVRQAPGKGLEWVAVIWYDGSNKHYADSVKGRFTITRDNSKNTLNLQMNSLRAEDTAVYYCARAPRYYDYYEAFDVWGQGTMVTVSS chain 2: SYVLTQPPSVSVAPGQTARITCGGNNLGSKSVHWYQQKPGQAPVLVVYDDSDRPSWIPERFSGSNSGNTATLTISRGEAGDEADYYCQVWDSSSDHVVFGGGTKLTVL
15 | 44.6 nM | unnamed (protein) chain 1: QMQLVESGGGVVQPGRSLRLSCAASGFTFRTYGMHWVRQAPGKGLEWVAVIWYDGSNKHYADSVKGRFTITRDNSKNTLNLQMNSLRAEDTAVYYCARAPRYDDYVEAFDVWGQGTMVTVSS chain 2: SYVLTQPPSVSVAPGQTARITCGGNNLGSKSVHWYQQKPGQAPVLVVYDDSDRPSWIPERFSGSNSGNTATLTISRGEAGDEADYYCQVWDSSSDHVVFGGGTKLTVL
16 | 44.5 nM | unnamed (protein) chain 1: QMQLVESGGGVVQPGRSLRLSCAASGFTFSTFAMHWVRQAPGKGLEWVAVIWYDGSNKHYADSVKGRFTITRDNSKNTLNLQMNSLRAEDTAVYYCARSPRYYEYYEAFDVWGQGTMVTVSS chain 2: SYVLTQPPSVSVAPGQTARITCGGNNLGSKSVHWYQQKPGQAPVLVVYDDSDRPSWIPERFSGSNSGNTATLTISRGEAGDEADYYCQVWDSSSDHVVFGGGTKLTVL
17 | 62.6 nM | unnamed (protein) chain 1: QMQLVESGGGVVQPGRSLRLSCAASGFTFSTFAMHWVRQAPGKGLEWVAVIWYDGSNKHYADSVKGRFTITRDNSKNTLNLQMNSLRAEDTAVYYCARAPRYYDYLEAFDVWGQGTMVTVSS chain 2: SYVLTQPPSVSVAPGQTARITCGGNNLGSKSVHWYQQKPGQAPVLVVYDDSDRPSWIPERFSGSNSGNTATLTISRGEAGDEADYYCQVWDSSSDHVVFGGGTKLTVL
18 | 61.1 nM | unnamed (protein) chain 1: QMQLVESGGGVVQPGRSLRLSCAASGFTFRTYGMHWVRQAPGKGLEWVAVIWYDGSNKHYADSVKGRFTITRDNSKNTLNLQMNSLRAEDTAVYYCARAPRYDDLWEAFDVWGQGTMVTVSS chain 2: SYVLTQPPSVSVAPGQTARITCGGNNLGSKSVHWYQQKPGQAPVLVVYDDSDRPSWIPERFSGSNSGNTATLTISRGEAGDEADYYCQVWDSSSDHVVFGGGTKLTVL
19 | 52.3 nM | unnamed (protein) chain 1: QMQLVESGGGVVQPGRSLRLSCAASGFTFRTYGMHWVRQAPGKGLEWVAVIWYDGSNKHYADSVKGRFTITRDNSKNTLNLQMNSLRAEDTAVYYCARAPRYYYYYEAFDVWGQGTMVTVSS chain 2: SYVLTQPPSVSVAPGQTARITCGGNNLGSKSVHWYQQKPGQAPVLVVYDDSDRPSWIPERFSGSNSGNTATLTISRGEAGDEADYYCQVWDSSSDHVVFGGGTKLTVL
